Experimental findings from article PMC4574351, “Tubulin cofactors and Arl2 are cage-like chaperones that regulate the soluble αβ-tubulin pool for microtubule dynamics” (eLife, 2015) are described below.

A word on the stoichiometry N: it is the number of molecules, sites or subunits per partner or assembly.

The target of the assay is T1, Tubulin cofactor D (TBCD), S. cerevisiae Cin1p (S. cerevisiae, UniProt P40987 1-1014).
T1 construct: Tubulin cofactor D ortholog Cin1p, S. cerevisiae, full-length cDNA; TBCD is insoluble when expressed alone; also called Yeast TBCD (cin1p); His-TBCD; source: E. coli, co-expressed with TBCE and Arl2 from polycistronic vectors; co-purified as TBC-DEG (Ni-NTA, HiTrap SP, Superdex 200); not shown: 6xHis, N-terminal, kept
T1 sequence (looked up): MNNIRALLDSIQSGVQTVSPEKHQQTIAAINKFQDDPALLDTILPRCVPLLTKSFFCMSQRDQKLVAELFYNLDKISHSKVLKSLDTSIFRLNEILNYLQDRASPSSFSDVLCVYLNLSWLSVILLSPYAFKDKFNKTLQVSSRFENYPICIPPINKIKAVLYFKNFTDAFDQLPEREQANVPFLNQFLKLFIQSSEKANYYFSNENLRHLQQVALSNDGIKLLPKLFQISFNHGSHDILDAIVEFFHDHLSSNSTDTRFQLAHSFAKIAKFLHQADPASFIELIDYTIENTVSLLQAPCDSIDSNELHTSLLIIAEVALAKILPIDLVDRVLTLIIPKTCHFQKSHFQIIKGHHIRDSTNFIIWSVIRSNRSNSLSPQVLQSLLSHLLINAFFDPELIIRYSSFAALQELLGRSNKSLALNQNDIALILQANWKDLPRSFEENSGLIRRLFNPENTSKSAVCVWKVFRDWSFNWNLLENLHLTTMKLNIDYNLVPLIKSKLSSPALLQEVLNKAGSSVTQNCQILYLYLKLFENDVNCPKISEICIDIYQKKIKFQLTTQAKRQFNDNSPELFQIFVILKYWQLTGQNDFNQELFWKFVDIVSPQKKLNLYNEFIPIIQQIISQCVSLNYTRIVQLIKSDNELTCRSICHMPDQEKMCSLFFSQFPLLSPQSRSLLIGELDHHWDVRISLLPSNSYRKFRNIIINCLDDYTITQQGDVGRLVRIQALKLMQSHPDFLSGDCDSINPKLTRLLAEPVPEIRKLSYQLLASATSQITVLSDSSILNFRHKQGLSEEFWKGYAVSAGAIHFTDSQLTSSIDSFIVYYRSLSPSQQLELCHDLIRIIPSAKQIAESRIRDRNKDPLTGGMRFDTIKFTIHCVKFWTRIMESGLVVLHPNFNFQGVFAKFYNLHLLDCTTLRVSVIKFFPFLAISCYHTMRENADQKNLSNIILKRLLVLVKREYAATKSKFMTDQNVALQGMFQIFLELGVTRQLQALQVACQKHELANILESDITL
As to the kind of experiment: SEC-MALS; WTC-03S5 column; purified TBC-DEG (subunits co-expressed and co-purified), αβ-tubulin, TBCC and their complexes; ternary complex with GDP·ALFx (wild type) or GTP (Q73L). The note with it: both partners purified. In general terms: SEC sorts molecules by how far they enter the pores of the column.

B1: Arl2 GTPase, S. cerevisiae Cin4p (enzyme, UniProt P39110 1-191, looked up)
chain: MGLLSIIRKQKLRDKEIRCLILGLDNSGKSTIVNKLLPKDEQNNDGIMPTVGFQIHSLMIKDVTISLWDIGGQRTLRPFWDNYFDKTQAMIWCIDVSLSMRFDETLQELKELINRDENRIGYECAVIVVLNKIDLVEDKSELHRRCLLVESELKCLFKPDIRIELVKCSGVTGEGIDNLRDRLVESCHFTQ
notes: ADP ribosylation factor-like 2 ortholog Cin4p, S. cerevisiae, full-length cDNA; Tags were not tolerated on either end of Arl2; Insoluble when expressed alone; also called Yeast Arl2 (cin4p); source: E. coli, co-expressed with TBCD and TBCE from polycistronic vectors; co-purified as TBC-DEG (Ni-NTA, HiTrap SP, Superdex 200)
Turning to B1, the “stoichiometry N” value stood at 1.
